The values below come from patent US6998383B2, “Inhibitors of receptor activator of NF-κB and uses thereof” (Research Development Corporation, priority 2001, dated 2006).

Assay [1] has as its target T1, TRAF2 binding to the cytoplasmic domain of RANK (Homo sapiens, UniProt Q12933).
T1 construct: expressed in transfected cells; host or cells: human 293 cells (TRAF lysate); The GST-RANK fusion was purified as previously described
T1 sequence (Q12933 1-501): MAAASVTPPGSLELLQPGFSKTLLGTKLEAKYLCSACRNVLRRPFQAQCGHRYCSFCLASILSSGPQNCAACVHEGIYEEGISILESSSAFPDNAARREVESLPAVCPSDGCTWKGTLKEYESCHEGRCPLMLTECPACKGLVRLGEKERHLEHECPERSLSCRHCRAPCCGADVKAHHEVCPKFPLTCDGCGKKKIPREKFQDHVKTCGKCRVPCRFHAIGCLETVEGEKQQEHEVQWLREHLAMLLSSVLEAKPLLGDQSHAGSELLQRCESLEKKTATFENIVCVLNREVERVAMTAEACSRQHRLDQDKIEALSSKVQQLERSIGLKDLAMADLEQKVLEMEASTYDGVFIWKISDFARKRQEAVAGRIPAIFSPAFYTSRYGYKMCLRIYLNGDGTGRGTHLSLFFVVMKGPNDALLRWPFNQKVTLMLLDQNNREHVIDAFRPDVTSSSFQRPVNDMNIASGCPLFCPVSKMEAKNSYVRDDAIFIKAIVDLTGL
Description: Competitive GST-pull down assay, TRAF2 binding to RANK cytoplasmic domain. Particulars: 100 μM peptide, FLAG-TRAF2 293 cell extract (FIG. 4C). The method, then: (§1) Cellular extracts from human 293 cells transfected with either FLAG-TRAF2, -TRAF5, or -TRAF6 were mixed with GST or GST-RANKed in the absence or presence of 100 μM of the indicated peptides. A GST-pull down assay was performed as described below. The bound TRAFs were visualized by immunoblotting with anti-FLAG antibodies.
(§2) Equivalent amounts of GST or GST-RANK cytoplasmic domain (GST-RANKed) fusion protein attached to 20 μl of glutathione agarose beads were mixed with lysates (50 μg) from 293 cells programmed to express the epitope-tagged TRAF protein and the indicated peptides in binding buffer (20 mM TRIS, pH 8, 150 mM NaCl, 1 mM DTT, 2 mM EDTA, and 0.1% NP-40) and allowed to rotate for 1 h at 4° C. The beads were collected by centrifugation, washed three times in binding buffer, and then washed once in low-salt buffer (20 mM TRIS, pH 8, 50 mM NaCl, and 1 mM DTT). Bound proteins were eluted with addition of SDS-sample buffer and boiled. The eluted proteins were subjected to 7.5% SDS-PAGE and western blot analysis was performed with anti-FLAG antibodies.
(§3) The cytoplasmic domain of RANK interacts with many TRAF molecules, including TRAF1, 2, 3, 5, and 6 (7-9, 11, 12). While TRAF1, 2, 3, and 5 interact with the c-terminal tail of receptor activator of NF-κB, TRAF6 interacts with a membrane proximal region of the cytoplasmic domain of the receptor activator of NF-κB. […]

Assay [2] relates to bone marrow-derived mouse monocytes. The experiment in a line: RANKL and M-CSF-mediated osteoclast differentiation in bone marrow-derived mouse monocytes (TRAP staining). It is filed as cell-based. Particulars: M-CSF 10 ng/ml and RANKL 30 ng/ml (FIGS. 3A, 3B). On the procedure: After 6-7 days, the cells were fixed and stained for TRAP. The numbers of multi-nucleated, TRAP positive osteoclasts were counted.
Mouse-derived monocytes were plated in 48-well plates and costimulated as in FIG. 3A with murine M-CSF (10 ng/ml) and RANKL (30 ng/ml) in the absence (left panel) or presence of the indicated peptides. After 6-7 days, the cells were fixed and stained for TRAP. A representative field from each well was taken at a magnification of 10×.
(§4) Primary bone marrow monocytes (BM) or RAW264.7 cells were cultured in 48-well dishes at a density of 1×10^5 cells/well or 2×10^3 cells/well, and then treated with the indicated factors at the beginning of the culture and during a medium change on day 3. Osteoclast formation was assessed by counting the total number of multi-nucleated (>3 nuclei), TRAP-positive cells present per well between day 7 and 10 (BM) or on day 5 (RAW264.7) (30).
To further support the results obtained from the RAW264.7 cell line, the ability of these peptides to inhibit RANKL-mediated osteoclast differentiation in primary mouse-derived monocytes was tested. Costimulation of bone marrow-derived monocytes with RANKL and M-CSF cause osteoclast differentiation after 7-10 days, as determined by staining multi-nucleated, TRAP positive osteoclasts (30). Similar to the results with RAW264.7 cells, both L-T6DP-1 and L-T6DP-2 inhibited the development of TRAP positive osteoclast in a dose-dependent manner and L-T6DP-1 was much more efficient (FIGS. 3A and 3B).

The target in assay [3] is T2, TRAF5 binding to the cytoplasmic domain of RANK (Mus musculus, UniProt P70191).
T2 construct: expressed in transfected cells; host or cells: human 293 cells (TRAF lysate); The GST-RANK fusion was purified as previously described
T2 sequence (P70191 whole entry, the tested form may be a part): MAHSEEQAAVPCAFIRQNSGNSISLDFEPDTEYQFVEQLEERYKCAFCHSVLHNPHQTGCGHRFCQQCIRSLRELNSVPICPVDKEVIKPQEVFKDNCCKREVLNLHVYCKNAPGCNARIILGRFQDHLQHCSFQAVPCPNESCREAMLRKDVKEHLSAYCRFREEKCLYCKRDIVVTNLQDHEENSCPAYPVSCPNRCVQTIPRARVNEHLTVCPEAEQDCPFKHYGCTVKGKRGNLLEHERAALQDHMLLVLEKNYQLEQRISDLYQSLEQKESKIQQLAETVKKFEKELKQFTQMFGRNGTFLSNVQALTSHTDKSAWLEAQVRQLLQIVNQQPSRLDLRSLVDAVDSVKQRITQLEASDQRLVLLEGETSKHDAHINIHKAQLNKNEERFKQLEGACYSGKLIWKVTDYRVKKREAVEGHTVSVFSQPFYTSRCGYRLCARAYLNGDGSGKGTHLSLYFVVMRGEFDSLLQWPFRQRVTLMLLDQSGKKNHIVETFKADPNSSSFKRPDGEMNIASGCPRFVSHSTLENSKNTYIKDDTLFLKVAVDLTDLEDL
Description: Competitive GST-pull down assay, TRAF5 binding to RANK cytoplasmic domain. The conditions noted are these: 100 μM peptide, FLAG-TRAF5 293 cell extract (FIG. 4C). On the procedure: as §1, §2, §3

In the next assay the test system is RAW264.7 cells. Description: RANKL-mediated osteoclast differentiation in RAW264.7 cells (TRAP staining). It is filed as cell-based, mouse. The conditions noted are these: RANKL, increasing amounts of peptide, 4-5 days (FIG. 2C). On the procedure: RAW264.7 cells were plated in 12-well plates and stimulated with RANKL (30 ng/ml) for 4 days. Cells were stained for TRAP essentially as described below. Photographs were taken using a 10× objective lens.
RAW cells were plated as described in FIG. 2A and treated with RANKL in the presence of 1, 30, or 100 μM of peptides as indicated. On day 4 cells were stained and evaluated as in FIG. 2A.
RAW264.7 cells were plated in 48-well plates in triplicate and treated with RANKL in the presence of increasing amounts of the indicated peptides. After 4-5 days, the cells were stained for TRAP and the total numbers of osteoclasts were counted as described below.
as §4
The mouse macrophage cell line RAW264.7 express the receptor activator of NF-κB on their cell surface and when stimulated with the receptor activator of NF-κB ligand differentiate into multi-nucleated, tartrate resistant acid phosphatase (TRAP) positive osteoclasts after 4-5 days (FIG. 2A). To determine whether L-T6DP-1 could inhibit RANKL-mediated osteoclast differentiation, RAW264.7 cells were co-cultured with increasing concentrations of either L-T6DP-1. or T6DP-1 and 30 ng/ml RANKL for 4 days.

The target of assay [4] is T3, TRAF6 binding to the RANK cytoplasmic domain (Mus musculus, UniProt P70196).
T3 construct: expressed in transfected cells; host or cells: human 293 cells (TRAF lysate); The GST-RANK fusion was purified as previously described
T3 sequence (P70196 1-530): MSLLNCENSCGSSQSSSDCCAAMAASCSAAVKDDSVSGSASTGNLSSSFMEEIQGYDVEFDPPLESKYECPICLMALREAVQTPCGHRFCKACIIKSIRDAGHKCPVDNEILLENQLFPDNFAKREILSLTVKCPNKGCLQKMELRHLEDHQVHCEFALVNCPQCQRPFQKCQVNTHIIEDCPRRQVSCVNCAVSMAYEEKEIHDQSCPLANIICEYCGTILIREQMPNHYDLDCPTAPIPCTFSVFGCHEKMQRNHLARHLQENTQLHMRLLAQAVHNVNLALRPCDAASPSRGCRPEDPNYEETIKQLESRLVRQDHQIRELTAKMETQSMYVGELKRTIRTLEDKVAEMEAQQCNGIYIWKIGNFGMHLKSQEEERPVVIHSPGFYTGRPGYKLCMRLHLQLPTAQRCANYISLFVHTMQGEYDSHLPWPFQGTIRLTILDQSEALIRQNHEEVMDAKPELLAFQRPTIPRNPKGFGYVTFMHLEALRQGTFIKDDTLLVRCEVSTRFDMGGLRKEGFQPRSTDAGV
Description: Competitive GST-pull down assay, TRAF6 binding to RANK cytoplasmic domain. The conditions noted are these: 100 μM peptide, FLAG-TRAF6 293 cell extract, GST-RANK cytoplasmic domain (FIG. 4C). On the procedure: as §1, §2, §3

For “L-T6DP-2: Kaposi fibroblast growth factor signal sequence hydrophobic domain attached to murine RANK peptide containing a similar TRAF6-binding motif (AAVALLPAVLLALLAPFQEPLEVGE)”, in assay [1], the “TRAF2 binding to the cytoplasmic domain of RANK” value is “neither L-T6DP-1 nor L-T6DP-2 inhibited”. Also, in assay [2], the “development of TRAP positive osteoclasts” value is “inhibited”. The “TRAF5 binding to the cytoplasmic domain of RANK” value in assay [3] is “neither L-T6DP-1 nor L-T6DP-2 inhibited”. Further, the “number of TRAP positive osteoclasts” value in the assay on RAW264.7 cells is recorded as “dose-dependent decrease”. In assay [4], the “TRAF6 interaction with the cytoplasmic domain of RANK” value was “Only L-T6DP-1 inhibited”.
